Laboratory results reported in publication PMC7211935, “Development of a therapeutic anti-HtrA1 antibody and the identification of DKK3 as a pharmacodynamic biomarker in geographic atrophy” (Proceedings of the National Academy of Sciences of the …, 2020).

How the values were obtained:
Experiment in all cases: SEC; E. coli-expressed and purified human HtrA1- to 4-PD/PDZ constructs, purified as homotrimers by size-exclusion chromatography; conditions not shown (SI Appendix)
[1] = target: human HtrA1-PD/PDZ (N domain-deleted HtrA1, protease domain and PDZ domain) (human)
[2] = target: human HtrA2-PD/PDZ (protease domain and PDZ domain) (human)
[3] = target: the molecule itself

Row | Molecule | stoichiometry N [3] | other results
1 | human HtrA1-PD/PDZ (N domain-deleted HtrA1, protease domain and PDZ domain) (domain or fragment) | – | stoichiometry N [1]: 3
2 | human HtrA2-PD/PDZ (protease domain and PDZ domain) (domain or fragment) | – | stoichiometry N [2]: 3
3 | human HtrA3-PD/PDZ (protease domain and PDZ domain) (domain or fragment) GLHQLSSPRYKFNFIADVVEKIAPAVVHIELFLRHPLFGRNVPLSSGSGFIMSEAGLIITNAHVVSSNSAAPGRQQLKVQLQNGDSYEATIKDIDKKSDIATIKIHPKKKLPVLLLGHSADLRPGEFVVAIGSPFALQNTVTTGIVSTAQREGRELGLRDSDMDYIQTDAIINYGNSGGPLVNLDGEVIGINTLKVTAGISFAIPSDRITRFLTEFQDKQIKDWKKRFIGIRMRTITPSLVDELKASNPDFPEVSSGIYVQEVAPNSPSQRGGIQDGDIIVKVNGRPLVDSSELQEAVLTESPLLLEVRRGNDDLLFSIAPEVVM | 3 | –
4 | human HtrA4-PD/PDZ (protease domain and PDZ domain) (domain or fragment) TGTRSAGPLRRNYNFIAAVVEKVAPSVVHVQLWGRLLHGSRLVPVYSGSGFIVSEDGLIITNAHVVRNQQWIEVVLQNGARYEAVVKDIDLKLDLAVIKIESNAELPVLMLGRSSDLRAGEFVVALGSPFSLQNTATAGIVSTKQRGGKELGMKDSDMDYVQIDATINYGNSGGPLVNLDGDVIGVNSLRVTDGISFAIPSDRVRQFLAEYHEHQMKGKAFSNKKYLGLQMLSLTVPLSEELKMHYPDFPDVSSGVYVCKVVEGTAAQSSGLRDHDVIVNINGKPITTTTDVVKALDSDSLSMAVLRGKDNLLLTVIPETIN | 3 | –
